The values that follow come from US20200283521A1 (GRANULAR THERAPEUTICS, published 2020).

Where a chain is given by its changes, count along the chain named. Read-outs that look alike come from different tables or passages of the source.

The target in assay [1] is T1, cynomolgus monkey C-KIT-Fc (cynomolgus monkey).
T1 construct: also called cyno C-KIT-Fc
As to the kind of experiment: direct titration ELISA on coated C-KIT-Fc, IgG1 format.
Experimental: Direct titration ELISA for IgG binding to human and cyno C-KIT-Fc proteins.
To coat Greiner Bio-One High bind ELISA plates, target proteins were diluted to 1 μg/ml in carbonate buffer and added at 100 μl per well, at 4° C., o/n. Coated plates were washed 3× with PBS pH7.4, blocked with 1% BSA in PBS (380 μl/well) for 1 hr at RT, then washed 3× with PBS-Tween 20 (PBST). C-KIT antibodies (100 μl/well; diluted in PBST) were then added and then incubated 1 hr at RT. Plates were then washed 3× with PBST and goat anti-human kappa chain-HRP added (100 μl/well) at RT, for 1 hr. Plates were then washed 3× with PBST and twice with PBS before the addition of 100 μl TMB per well. Reactions were stopped by adding 100 μl 2M H₂SO₄/well and OD was read on a plate reader at 450 nm.

In assay [2] the target is T2, hCD4 (human, UniProt P01730).
T2 construct: purified recombinant protein; member of the panel m9
As to the kind of experiment: direct ELISA on coated protein, IgG1.

The target in assay [3] is T3, h4-1BB-Fc.
T3 construct: member of the panel m9
T3 sequence (chain, as listed by the source limits assumed): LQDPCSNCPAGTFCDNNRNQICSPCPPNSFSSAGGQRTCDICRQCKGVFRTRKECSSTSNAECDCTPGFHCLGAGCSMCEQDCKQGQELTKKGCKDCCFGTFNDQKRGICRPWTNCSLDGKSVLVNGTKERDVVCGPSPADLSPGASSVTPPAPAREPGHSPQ
As to the kind of experiment: direct ELISA on coated protein, IgG1.

Assay [4] addresses T4, hICAM-1-Fc (human, UniProt P05362).
T4 construct: Fc fusion; member of the panel m9
As to the kind of experiment: direct ELISA on coated protein, IgG1.

Assay [5] has as its target T5, hDR6-Fc (human, UniProt O75509).
T5 construct: Fc fusion; member of the panel m9
T5 sequence (looked up): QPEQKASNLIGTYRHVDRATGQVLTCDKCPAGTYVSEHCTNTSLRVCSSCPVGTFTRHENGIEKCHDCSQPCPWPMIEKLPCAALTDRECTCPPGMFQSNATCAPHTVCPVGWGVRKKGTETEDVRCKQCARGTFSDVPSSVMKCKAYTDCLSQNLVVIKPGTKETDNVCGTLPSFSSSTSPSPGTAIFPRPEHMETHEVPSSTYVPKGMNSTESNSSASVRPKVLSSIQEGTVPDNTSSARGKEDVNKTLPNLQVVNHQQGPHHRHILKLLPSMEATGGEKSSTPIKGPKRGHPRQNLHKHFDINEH
As to the kind of experiment: direct ELISA on coated protein, IgG1.

Assay [6] deals with T6, hLTBR-Fc (human, UniProt P36941).
T6 construct: Fc fusion; member of the panel m9
T6 sequence (P36941 28-227 limits assumed): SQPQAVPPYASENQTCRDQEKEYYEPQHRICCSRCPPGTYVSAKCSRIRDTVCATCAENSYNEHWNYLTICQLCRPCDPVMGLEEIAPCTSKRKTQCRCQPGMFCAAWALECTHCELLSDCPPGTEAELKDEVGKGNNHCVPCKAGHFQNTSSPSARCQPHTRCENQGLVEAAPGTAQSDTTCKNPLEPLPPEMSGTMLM
As to the kind of experiment: direct ELISA on coated protein, IgG1.

In assay [7] the target is T7, hEpCAM-Fc (human, UniProt P16422).
T7 construct: Fc fusion; member of the panel m9
T7 sequence (looked up): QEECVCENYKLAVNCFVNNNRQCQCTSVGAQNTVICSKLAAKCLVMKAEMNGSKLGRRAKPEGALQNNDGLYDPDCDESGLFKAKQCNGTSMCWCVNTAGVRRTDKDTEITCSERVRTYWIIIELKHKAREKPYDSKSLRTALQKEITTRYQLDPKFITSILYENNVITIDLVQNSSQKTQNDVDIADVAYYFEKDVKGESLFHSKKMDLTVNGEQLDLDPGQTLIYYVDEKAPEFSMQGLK
As to the kind of experiment: direct ELISA on coated protein, IgG1.

In assay [8] the target is T8, hCMET-Fc (The natural ectodomain is cleaved by furin after residue 307 into disulfide-linked alpha and beta chains. It is given here as one continuous stretch.).
T8 construct: member of the panel m9
T8 chain: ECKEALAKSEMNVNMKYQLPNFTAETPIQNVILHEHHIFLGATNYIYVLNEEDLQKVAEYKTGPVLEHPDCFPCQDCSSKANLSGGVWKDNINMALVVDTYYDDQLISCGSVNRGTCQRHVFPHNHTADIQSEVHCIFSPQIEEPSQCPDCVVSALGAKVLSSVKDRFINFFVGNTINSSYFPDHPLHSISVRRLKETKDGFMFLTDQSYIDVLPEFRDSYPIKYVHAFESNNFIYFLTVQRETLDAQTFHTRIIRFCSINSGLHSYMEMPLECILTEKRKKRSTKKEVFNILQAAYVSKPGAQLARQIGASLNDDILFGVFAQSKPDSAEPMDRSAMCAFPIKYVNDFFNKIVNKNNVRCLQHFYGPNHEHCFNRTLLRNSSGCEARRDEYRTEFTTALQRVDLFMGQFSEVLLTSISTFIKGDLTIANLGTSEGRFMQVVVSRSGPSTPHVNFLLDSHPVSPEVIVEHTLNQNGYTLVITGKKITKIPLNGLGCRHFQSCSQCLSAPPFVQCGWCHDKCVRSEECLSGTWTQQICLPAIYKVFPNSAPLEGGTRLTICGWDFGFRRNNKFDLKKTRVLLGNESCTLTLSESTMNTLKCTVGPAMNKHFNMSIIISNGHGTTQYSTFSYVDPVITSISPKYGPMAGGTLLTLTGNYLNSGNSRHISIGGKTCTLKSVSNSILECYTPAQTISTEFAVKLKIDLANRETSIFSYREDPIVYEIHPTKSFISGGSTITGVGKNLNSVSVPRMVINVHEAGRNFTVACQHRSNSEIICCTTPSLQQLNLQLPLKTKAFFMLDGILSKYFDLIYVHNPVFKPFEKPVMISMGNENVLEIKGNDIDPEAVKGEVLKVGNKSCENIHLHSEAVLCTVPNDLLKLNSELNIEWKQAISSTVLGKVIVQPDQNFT
As to the kind of experiment: direct ELISA on coated protein, IgG1.

The target of assay [9] is T2, hCD4. As to the kind of experiment: direct ELISA on coated protein, IgG1. This is another data set of the same source.
For assay [10], the target named is T9, hDR3-Fc (human, UniProt Q93038).
T9 construct: Fc fusion; member of the panel m9
T9 sequence (looked up): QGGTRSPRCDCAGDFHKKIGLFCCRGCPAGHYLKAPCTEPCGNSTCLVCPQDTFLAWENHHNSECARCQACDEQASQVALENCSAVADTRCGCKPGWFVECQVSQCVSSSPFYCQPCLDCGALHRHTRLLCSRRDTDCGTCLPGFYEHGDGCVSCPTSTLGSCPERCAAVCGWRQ
As to the kind of experiment: direct ELISA on coated protein, IgG1.

For assay [11], the target named is T10, hTWEAK-Fc (human, UniProt O43508).
T10 construct: Fc fusion; member of the panel m9
T10 sequence (looked up): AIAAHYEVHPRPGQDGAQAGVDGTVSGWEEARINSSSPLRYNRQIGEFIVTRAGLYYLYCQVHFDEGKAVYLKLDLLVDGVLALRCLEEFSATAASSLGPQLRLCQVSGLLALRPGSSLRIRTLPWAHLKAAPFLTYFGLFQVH
As to the kind of experiment: direct ELISA on coated protein, IgG1.

Assay [12] has as its target T8, hCMET-Fc. As to the kind of experiment: direct ELISA on coated protein, IgG1.

T4 sequence (P05362 28-480 limits assumed): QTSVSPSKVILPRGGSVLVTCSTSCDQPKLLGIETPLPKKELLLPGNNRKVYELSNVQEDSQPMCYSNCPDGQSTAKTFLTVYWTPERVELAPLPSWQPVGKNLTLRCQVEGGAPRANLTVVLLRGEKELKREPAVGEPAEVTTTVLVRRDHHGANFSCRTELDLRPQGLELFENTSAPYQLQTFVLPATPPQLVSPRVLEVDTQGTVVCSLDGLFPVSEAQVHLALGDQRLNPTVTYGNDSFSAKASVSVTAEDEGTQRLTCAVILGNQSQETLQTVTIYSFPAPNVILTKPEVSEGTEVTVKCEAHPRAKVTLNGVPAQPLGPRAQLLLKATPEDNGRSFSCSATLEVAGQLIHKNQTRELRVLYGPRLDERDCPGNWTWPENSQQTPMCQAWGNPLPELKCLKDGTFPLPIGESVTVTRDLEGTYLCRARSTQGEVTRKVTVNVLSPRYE

B1: MH5, human IgG1 (antibody, V domains shown)
VH: QVQLVQSGAEVKKPGASVKVSCKASGYTFTDYYMNWVRQAPGQGLEWMGRIYPGSGNTYYAQKFQGRVTMTRDTSTSTVYMELSSLRSEDTAVYYCARGVYYYDYWGQGTLVTVSS
VL: DIQMTQSPSSLSASVGDRVTITCRASQGIRTNLAWFQQKPGKAPKSLIYSASSLQSGVPSRFSGSGSGTDFTLTISSLQPEDFATYYCQQYANYPRTFGGGTKVEIK
notes: IgG1; also called C-KIT-MH5; C-KIT-MHS
Turning to B1, the concentration for a half-maximal effect (EC50 (read off the curve)) in [1] is approximately 0.1 µg/mL.

B2: MH1, human IgG1 (antibody, V domains shown)
VH: B1 VH
VL: B1 VL with S50A, A92N, N93S
notes: IgG1; also called IgG1-MH1
B2: the binding result in assay [2], in assay [3], in assay [4], in assay [5], in assay [6] and in assay [7] was “no binding (tested: 1 µg/ml)” each time. In addition, the binding result in assay [8] was “no binding (tested: 1 µg/ml)”.

B3: MH5.22 (antibody, IgG1, V domains shown)
VH: B1 VH with Y32F, G54A, Y101W
VL: B1 VL with S50A
notes: IgG1; also called C-KIT-MH5.22
B3: the binding result in assay [9], in [10], in [11] and in assay [12] was “no binding (tested: 1 µg/ml)” throughout.
